This note sets out measurements from US20050196808A1 (published 2005).

Non-standard residues stand in square brackets, D forms with d. No end group written: not given here. pY = N[C@@H](Cc1ccc(OP(=O)(O)O)cc1)C(=O)O; pT = C[C@@H](OP(=O)(O)O)[C@H](N)C(=O)O

The target in test [1] is BRCTtide-7pS, GAAYDI-pS-…. The test is described as follows: ITC, peptide injected into 15 µM GST-(BRCT)2. In general terms: In ITC the heat of successive injections is recorded.
In test [2] the target is PoloBoxtide with Asn substituted for Pro at pThr+1. The test is described as follows: ITC.
The target in test [3] is PoloBoxtide with phosphoserine substituted for phosphothreonine. The test is described as follows: ITC.
The target in test [4] is PoloBoxtide-optimal, MAGPMQ-S-pT-P-LNGAKK. The test is described as follows: isothermal titration calorimetry (ITC), peptide injected into 15 µM PBD.
Test [5] concerns the target Plk-1 Polo-box Domain (PBD, residues 326-603) (human) (UniProt P53350). The test is described as follows: isothermal titration calorimetry [table].
Test [6] has the same target. The test is described as follows: isothermal titration calorimetry.
In test [7] the target is BRCTtide-7pT, GAAYDI-pT-…. The test is described as follows: ITC, peptide injected into 15 µM GST-(BRCT)2.
In test [8] the target is T1, Cdc25C, mitotically phosphorylated (up-shifted) form, endogenous in nocodazole-arrested HeLa cells (human, UniProt P30307 1-473, limits assumed, extensively phosphorylated at the N-terminus in mitosis, including phosphothreonine at 130).
T1 construct: also called mitotically up-shifted form of Cdc25C; mitotically phosphorylated Cdc25C
T1 sequence (looked up): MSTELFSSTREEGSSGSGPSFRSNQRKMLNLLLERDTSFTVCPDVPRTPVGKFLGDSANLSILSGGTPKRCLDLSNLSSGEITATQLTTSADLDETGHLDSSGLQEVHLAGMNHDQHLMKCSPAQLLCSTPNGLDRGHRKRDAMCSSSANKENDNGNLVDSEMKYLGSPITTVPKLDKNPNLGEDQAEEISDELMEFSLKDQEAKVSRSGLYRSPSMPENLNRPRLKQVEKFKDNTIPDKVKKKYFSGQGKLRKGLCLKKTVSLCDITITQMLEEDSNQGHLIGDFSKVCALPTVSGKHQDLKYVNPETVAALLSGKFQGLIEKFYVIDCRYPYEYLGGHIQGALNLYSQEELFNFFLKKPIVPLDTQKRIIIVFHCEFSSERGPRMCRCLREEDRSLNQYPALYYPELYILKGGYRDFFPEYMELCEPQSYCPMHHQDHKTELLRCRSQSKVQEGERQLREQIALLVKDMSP
The test is described as follows: Ni2+ bead pull-down from nocodazole-arrested transfected HeLa cells, blot α-Cdc25.

The target in test [9] is T2, Plk-1 Polo-box Domain (PBD, residues 326-603) (human, UniProt P53350 326-603).
T2 construct: also called Plk-1 PBD; Plk1 PBD
The test is described as follows: isothermal titration calorimetry [table]. As for the experimental part:
(§1) Some peptides contained an additional tyrosine residue to facilitate concentration determination by optical absorbance. Calorimetry measurements were performed using a VP-ITC microcalorimeter (MicroCal Inc., Studio City, Calif.). […] Thirty injections were performed with a spacing of 240 s and a reference power of 25 μCal/s. Binding isotherms were plotted and analyzed using Origin Software (MicroCal Inc. Studio City, Calif.).

For test [10], the target named is T2, Plk-1 Polo-box Domain (PBD, residues …). The test is described as follows: isothermal titration calorimetry [ITC panels]. As for the experimental part: as §1

For “GST-BRCA1 tandem BRCT domains (residues 1634-1863) (from UniProt P38398 1634-1863)”, the dissociation constant Kd (as a rule, the concentration at which binding is half-saturated) in test [1] turned out to be 0.4 µM.

For “Plk-1 Polo-box Domain (PBD, residues 326-603) (from UniProt P53350 326-603)”, the fold increase in Kd against PoloBoxtide-optimal in test [2] is over 5 fold. This molecule also displayed a fold drop in affinity against PoloBoxtide-optimal in test [3] of 7 fold. In test [4], the Kd turned out to be 0.28 µM.

On to “PoloBoxtide with Asn substituted for Pro at pThr+1 (peptide)”, for which, in test [5], the Kd turned out to be 1.5 µM.

In test [5], “PoloBoxtide with phosphoserine substituted for phosphothreonine (peptide)” came in with a dissociation constant (Kd) of 2.1 µM.

For “PoloBoxtide-optimal, MAGPMQ-S-pT-P-LNGAKK (peptide)”, the Kd in test [5] and in [6] was 0.28 µM throughout.

With “GST-PTIP tandem BRCT domains (residues 550-757) (from UniProt Q6ZW49 862-1069)”, the Kd in [1] was determined as 0.28 µM; in test [7] it was 14.3 µM.

B1: His-Xpress-tagged control Plk1 PBD construct lacking the second Polo-box (residues 326-506) (other)
chain: SIAPSSLDPSNRKPLTVLNKGLENPLPERPREKEEPVVRETGEVVDCHLSDMLQQLHSVNASKPSERGLVRQEEAEDPACIPIFWVSKWVDYSDKYGLGYQLCDNSVGVLFNDSTRLILYNDGDSLQYIERDGTESYLTVSSHPNSLMKKITLLKYFRNYMSEHLLKAGANITPREGDELA
notes: not shown: His-Xpress tag
In the case of B1, in test [8], the binding result is reported as “no binding”.

In the case of MAGPMQA[pT]PLNGAKK [PoloBoxtide with Ser at pThr-1 replaced with Ala], the binding result in test [9] was “no binding (tested: 150 µM Plk-1 PBD)”.

MAGPMQS[pY]PLNGAKK (built from the optimal peptide) [PoloBoxtide with phosphotyrosine substituted for phosphothreonine]: in test [9], the binding result is recorded as “no binding (tested: 150 µM Plk-1 PBD)”.

For the molecule MAGPMQC[pT]PLNGAKK [PoloBoxtide with Ser at pThr-1 replaced with Cys], the binding result in test [9] is “no binding (tested: 150 µM Plk-1 PBD)”.

On to MAGPMQT[pT]PLNGAKK [PoloBoxtide with Ser at pThr-1 replaced with Thr], for which, in test [9], the binding result is recorded as “no binding (tested: 150 µM Plk-1 PBD)”.

For MAGPMQG[pT]PLNGAKK [PoloBoxtide with Ser at pThr-1 replaced with Gly], the binding result in test [9] is listed as “no binding (tested: 150 µM Plk-1 PBD)”.

B2: PoloBoxtide-7V (peptide)
peptide: MAGPMQV[pT]PLNGAKK
notes: also called phosphopeptide whose serine at pThr-1 was mutated to valine
As to B2, in [10], the binding result is recorded as “no binding (tested: molar ratio about 2.7)”.
